The results in this text go back to patent publication US20200062856A1 (XDCEXPLORER SHANGHAI, published 2020).

As usually defined, the EC50 is the concentration that produces a half-maximal response. The low end stands for greater potency, the high end for weaker potency.

Assay [1] has as its target human TPBG protein, full-length, on the cell surface (human) (UniProt Q13641). Kind of assay: FACS, HEK293 clone 293F-hTPBG 4C5.
Assay [2] has the same target. Kind of assay: FACS, HEK293 clone 293F-hTPBG 4G6. (A flow cytometer gives signals particle by particle.)
Assay [3] shares this target. Kind of assay: FACS, HEK293 clone 293F-hTPBG 4A9.
For assay [4] the target is unchanged. Kind of assay: FACS, HEK293 clone 293F-hTPBG 4F9.
For assay [5] the target is unchanged. The assay is described as follows: FACS, HEK293 clone 293F-hTPBG 5C12.
Assay [6] shares this target. The assay is described as follows: FACS, HEK293 clone 293F-hTPBG 5A11.
Assay [7] shares this target. Kind of assay: FACS, HEK293 clone 293F-hTPBG 5G11.
For assay [8] the target is unchanged. Kind of assay: FACS, CHOk1-hTPBG 3A2F1 cells.
Assay [9] has the same target. The assay is described as follows: FACS, HEK293 clone 293F-hTPBG 4E1.
Assay [10] shares this target. The assay is described as follows: FACS, HEK293 clone 293F-hTPBG 5D4.
For assay [11] the target is unchanged. The assay is described as follows: FACS, HEK293 clone 293F-hTPBG 4E1 (NO 8).
Assay [12] has the same target. The assay is described as follows: FACS, HEK293 clone 293F-hTPBG 5A9.
Assay [13] has the same target. Kind of assay: FACS, HEK293 clone 293F-hTPBG 5E5.
Assay [14] has the same target. The assay is described as follows: FACS, HEK293 clone 293F-hTPBG 4A8.
The target in assay [15] is mouse TPBG protein, full-length, on the cell surface (mouse) (UniProt Q9Z0L0). The assay is described as follows: FACS, CHOk1-mTPBG 3A3 cells.
Assay [16] concerns the target human TPBG protein, full-length, on the cell surface (human) (UniProt Q13641). The assay is described as follows: FACS, HEK293 clone 293F-hTPBG 4B9.
For assay [17] the target is unchanged. Kind of assay: FACS, HEK293 clone 293F-hTPBG 4G1.
For assay [18] the target is unchanged. Kind of assay: FACS, HEK293 clone 293F-hTPBG 5E6.
Assay [19] shares this target. The assay is described as follows: FACS, HEK293 clone 293F-hTPBG 5G8.
For assay [20] the target is unchanged. The assay is described as follows: FACS, HEK293 clone 293F-hTPBG 4H12.
The target of assay [21] is cynomolgus TPBG protein, full-length, on the cell surface (cynomolgus) (UniProt Q4R8Y9). The assay is described as follows: FACS, CHOk1-cTPBG 3F13G4 cells.
Assay [22] concerns the target human TPBG protein, full-length, on the cell surface (human) (UniProt Q13641). The assay is described as follows: FACS, HEK293 clone 293F-hTPBG 4C3.
Assay [23] has the same target. The assay is described as follows: FACS, HEK293 clone 293F-hTPBG 5H6.
Assay [24] deals with T1, human TPBG protein, full-length, on the cell surface (human, UniProt Q13641 32-420).
T1 construct: whole, on cells; Transfected HEK293 (293F-hTPBG clones) and CHO-k1 (CHOk1-hTPBG 3A2F1) cells; also used here for endogenous TPBG on the TPBG-positive tumour lines NCI-H1568, NCI-H1975 and MDA-MB-468 in the killing assays; also called hTPBG; 5T4
T1 sequence (looked up): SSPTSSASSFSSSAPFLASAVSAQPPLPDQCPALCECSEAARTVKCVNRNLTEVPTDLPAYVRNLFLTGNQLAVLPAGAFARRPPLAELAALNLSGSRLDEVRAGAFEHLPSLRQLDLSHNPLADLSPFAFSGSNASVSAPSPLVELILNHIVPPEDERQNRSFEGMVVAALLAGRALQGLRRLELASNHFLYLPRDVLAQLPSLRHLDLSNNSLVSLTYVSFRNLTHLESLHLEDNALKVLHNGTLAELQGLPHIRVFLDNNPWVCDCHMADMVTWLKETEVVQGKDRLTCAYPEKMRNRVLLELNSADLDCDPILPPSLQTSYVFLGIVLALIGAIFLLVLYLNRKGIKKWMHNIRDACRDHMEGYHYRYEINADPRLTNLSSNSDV
Kind of assay: FACS on CHOk1-hTPBG cells. The source says:
(§1) The stable cell lines CHOk1-hTPBG, CHOk1-cTPBG, CHOk1-mTPBG (i.e. the CHOk1-hTPBG 3A2F1, CHOk1-cTPBG 3F13G4 and CHOk1-mTPBG 3A3 shown in Table 6) and CHO-k1 cells were expanded to a 90% of confluency in T-75 cell culture flasks, and the culture medium were removed. Cells were then rinsed twice with HBSS buffer (Hanks Balanced Salt Solution, purchased from Invitrogen) and […] with enzyme-free cell dissociation buffer (Versene solution was purchased from Life technology) and harvested. Harvested cells were rinsed with HBSS buffer twice and counted before diluting with HBSS buffer to 2×10⁶ cells/mL, and 10% goat serum blocking buffer was then added, wherein the percentage is the mass percentage. Cells were incubated on ice for 30 min, and then washed twice with HBSS buffer by centrifugation. […] The plate was washed with the FACS buffer twice by centrifugation, and 100 μL per well of fluorescence (Alexa 488) labeled secondary antibody (purchased from Invitrogen) was then added and incubated on ice for 1 h. […] The results were measured and analyzed by FACS (FACS Calibur, purchased from BD). The data was analyzed by software (CellQuest) to obtain the mean fluorescence intensity (MFI) of the cells, follow by calculating EC50 value by software (GraphPad Prism) analysis and data fitting.

Assay [25] deals with T2, mouse TPBG protein, full-length, on the cell surface (mouse, UniProt Q9Z0L0 32-426).
T2 construct: whole, on cells; also called mTPBG; CHOk1-mTPBG
T2 sequence (looked up): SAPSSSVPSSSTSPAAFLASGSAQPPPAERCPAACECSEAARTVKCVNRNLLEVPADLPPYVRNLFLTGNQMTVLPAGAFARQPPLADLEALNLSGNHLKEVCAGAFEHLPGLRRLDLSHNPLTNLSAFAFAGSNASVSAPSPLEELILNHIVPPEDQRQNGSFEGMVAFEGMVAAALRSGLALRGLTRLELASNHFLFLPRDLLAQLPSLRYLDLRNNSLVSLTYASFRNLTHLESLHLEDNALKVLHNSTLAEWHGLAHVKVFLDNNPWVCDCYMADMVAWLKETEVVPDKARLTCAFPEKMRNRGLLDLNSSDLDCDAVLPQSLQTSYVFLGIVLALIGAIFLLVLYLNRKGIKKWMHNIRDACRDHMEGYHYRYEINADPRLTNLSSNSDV
The assay is described as follows: FACS on CHOk1-mTPBG cells.
Excerpt: as §1

Assay [26] has as its target T3, cynomolgus TPBG protein, full-length, on the cell surface (cynomolgus, UniProt Q4R8Y9 35-420).
T3 construct: whole, on cells; also called cTPBG; CHOk1-cTPBG
T3 sequence (looked up): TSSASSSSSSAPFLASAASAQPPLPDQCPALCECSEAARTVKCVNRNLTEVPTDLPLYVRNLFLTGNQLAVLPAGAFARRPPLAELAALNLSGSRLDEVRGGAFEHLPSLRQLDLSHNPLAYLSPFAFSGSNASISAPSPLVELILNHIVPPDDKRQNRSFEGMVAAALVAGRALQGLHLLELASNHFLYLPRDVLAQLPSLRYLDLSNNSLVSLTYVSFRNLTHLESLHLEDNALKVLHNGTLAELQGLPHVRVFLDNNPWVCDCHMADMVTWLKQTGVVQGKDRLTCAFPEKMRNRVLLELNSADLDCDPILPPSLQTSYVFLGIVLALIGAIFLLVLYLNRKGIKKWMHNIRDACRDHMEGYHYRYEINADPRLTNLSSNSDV
Kind of assay: FACS on CHOk1-cTPBG cells.
Excerpt: as §1

For “commercially available TPBG antibody (purchased from Sigma, Lot NO: SAB1404485)”, the Cellular MFI turned out to be 172 MFI in [1]; 31.8 MFI in [2]; 204 MFI in assay [3]; 47.7 MFI in assay [4]; 75.4 MFI in assay [5]; 166 MFI in [6]. Further, the Cellular MFI was 11.3 MFI in assay [7]; 798 MFI in assay [8]; 145 MFI in [9]; 70.6 MFI in assay [10]; 91.8 MFI in assay [11]; 53.2 MFI in assay [12]. The Cellular MFI worked out at 280 MFI in assay [13]; 33.4 MFI in assay [14]; 135 MFI in [15]; 126 MFI in assay [16]; 131 MFI in assay [17]; 13.2 MFI in assay [18]. In addition, the Cellular MFI is 168 MFI in assay [19]; 9.5 MFI in assay [20]; 198 MFI in [21]; 27.2 MFI in assay [22]; 36.4 MFI in assay [23].

B1: mouse anti-TPBG monoclonal antibody 12B12C7C3 (antibody, V domains shown)
VH: DVQLVESGGGLVQPGGSRKLSCAASGFTFSNFGMHWVRQAPEKGLEWVAYISSGSTSFYYADTVKGRFTISRDNPKNTLFLQMTSLRSEDTAMYYCSRTNSLLRGFFDAWGAGTTVTVSS
VL: DIVLTQSPASLAVSLGQRATISCRASQSVSSSSYTYLHWYQQKPGQPPKLLIKSASNLESGVPARFSGTGSGTDFTLNIHPVEEEDTATYYCQHSWEIPLTFGAGTKLELK
notes: Mouse antibody purified from hybridoma supernatant; also called 12B12C7C3 (12B12 for short)
B1: the EC50 was 0.65 nM in assay [24] and 0.59 nM in assay [26]. For the same molecule, the binding result in assay [25] is “no binding”.

B2: mouse anti-TPBG monoclonal antibody 28D4E6A9 (antibody, V domains shown)
VH: DVQLVESGGGLVRPGGSLKLSCAASGFTFSNYVMSWARQSPEKRLEWVAEISTGGSHTYYSDTVTGRFTISRDNAKKALYLEMSSLRSEDTAIYYCIMFYYGSSYSMDYWGQGTSVTVSS
VL: DIQMTQSTSSLSASLGDRITISCRASQDIRNYLNWYQQKPDGTVKLLIYHTSRLHSGVPSRFSGSGSGTDYSLTISNLEQEDIATYFCQQGDTLPLTFGAGTRLELK
notes: Mouse antibody purified from hybridoma supernatant; also called 28D4E6A9 (28D4 for short)
As for B2, the results for the EC50 in assay [24] and in [26] were 0.63 nM and 0.25 nM, respectively. In addition, the binding result in assay [25] is on record as “no binding”.
